Reference: patent publication US20240116985A1 (published 2024)
Each block holds one binder with its values, some of them ahead of it. Starred links: 1 amine or outer side, 2 acyl side, 3 side chain; linkers in the order of their positions; H or OH if unused. Positions of bridges follow the written chain, without caps; N, C: chain ends. Non-standard residues stand in square brackets, D forms with d. Primed or numbered codes have the meaning given here. B5(10) = 2-amino-2-(pent-4-en-1-yl)hept-6-enoic acid, bis(4-pentenyl)glycine, stitching residue bearing both staples, C=CCCCC(CCCC=C)(N[*:1])C(=O)[*:2]; PyrS2(3) = (S)-3-amino-1-((pent-4-en-1-yloxy)carbonyl)pyrrolidine-3-carboxylic acid, stapling residue, C=CCCCOC(=O)N1CC[C@@](N[*:1])(C(=O)[*:2])C1; PyrS2″ = (S)-3-amino-1-((pent-4-en-1-yloxy)carbonyl)pyrrolidine-3-carboxylic acid (stapling residue), C=CCCCOC(=O)N1CC[C@@](N[*:1])(C(=O)[*:2])C1; B5(16) = 2-amino-2-(pent-4-en-1-yl)hept-6-enoic acid = 2,2-bis(4-pentenyl)glycine (stitching residue), C=CCCCC(CCCC=C)(N[*:1])C(=O)[*:2]; B5(4) = 2,2-bis(4-pentenyl)glycine = 2-amino-2-(pent-4-en-1-yl)hept-6-enoic acid (stitching residue), C=CCCCC(CCCC=C)(N[*:1])C(=O)[*:2]; PyrS2 = (S)-3-amino-1-((pent-4-en-1-yloxy)carbonyl)pyrrolidine-3-carboxylic acid, C=CCCCOC(=O)N1CC[C@@](N[*:1])(C(=O)[*:2])C1; Phe(2-Cl) = N[C@@H](Cc1ccccc1Cl)C(=O)O; Bta = N[C@@H](Cc1csc2ccccc12)C(=O)O; αAllylPro = C=CC[C@@]1(C(=O)O)CCCN1; tBuAla = CC(C)(C)C[C@H](N)C(=O)O; Cha = N[C@@H](CC1CCCCC1)C(=O)O; S8 = C=CCCCCCC[C@](C)(N)C(=O)O; R5 = C=CCCC[C@@](C)(N)C(=O)O

Experiments:
[1] = biological target: T1, Bcat-Halo (UniProt P35222 1-781); test: NanoBRET Abs IC50 in HEK293 cells; Bcat-Halo, competitor TCF4-Luc
T1 construct: also called beta-catenin HaloTag fusion; not shown: HaloTag
T1 sequence (looked up): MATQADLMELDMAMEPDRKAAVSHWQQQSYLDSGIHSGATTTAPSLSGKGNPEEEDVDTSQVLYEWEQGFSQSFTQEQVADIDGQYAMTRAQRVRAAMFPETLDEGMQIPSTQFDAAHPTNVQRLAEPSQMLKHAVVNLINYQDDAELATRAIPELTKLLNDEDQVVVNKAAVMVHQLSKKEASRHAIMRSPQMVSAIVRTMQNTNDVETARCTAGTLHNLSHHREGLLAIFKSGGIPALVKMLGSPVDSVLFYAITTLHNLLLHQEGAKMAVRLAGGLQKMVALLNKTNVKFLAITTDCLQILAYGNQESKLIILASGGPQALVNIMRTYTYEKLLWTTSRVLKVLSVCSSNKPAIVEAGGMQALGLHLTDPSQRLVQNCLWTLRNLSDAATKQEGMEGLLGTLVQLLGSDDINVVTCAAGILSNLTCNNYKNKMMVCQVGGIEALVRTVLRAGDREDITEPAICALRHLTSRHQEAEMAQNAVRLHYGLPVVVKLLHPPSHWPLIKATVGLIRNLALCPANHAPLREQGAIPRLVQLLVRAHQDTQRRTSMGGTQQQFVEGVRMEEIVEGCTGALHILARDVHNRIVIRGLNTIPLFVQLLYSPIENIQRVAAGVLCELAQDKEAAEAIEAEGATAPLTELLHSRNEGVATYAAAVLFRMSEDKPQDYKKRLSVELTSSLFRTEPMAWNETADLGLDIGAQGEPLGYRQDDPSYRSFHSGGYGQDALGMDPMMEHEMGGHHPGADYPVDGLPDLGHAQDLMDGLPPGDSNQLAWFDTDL

[2] = biological target: T2, full-length beta-Catenin (Uniprot ID P35222) (Homo sapiens (Human), UniProt P35222 1-781); test: fluorescence polarization competition; full-length beta-catenin, competitor 5FAM-TCF4(10-53) probe
T2 construct: also called bCat; B-Catenin
T2 sequence: T1 sequence (looked up)
Method in brief: (§1)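 Fluorescence polarization was read in duplicate after the plate sat 60 minutes at 20° C. shielded from light. Values come from fitting to a 1:1 binding model with hill slope.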

[3] = biological target: T3, full-length beta-Catenin (Uniprot ID P35222) (Homo sapiens (Human), UniProt P35222 2-781); test: fluorescence polarization competition; full-length beta-catenin + 5FAM-TCF4 10-53 probe
T3 construct: The FP protocol says 'full-length beta-Catenin (Uniprot ID P35222)'; also called bCat; B-Catenin
T3 sequence: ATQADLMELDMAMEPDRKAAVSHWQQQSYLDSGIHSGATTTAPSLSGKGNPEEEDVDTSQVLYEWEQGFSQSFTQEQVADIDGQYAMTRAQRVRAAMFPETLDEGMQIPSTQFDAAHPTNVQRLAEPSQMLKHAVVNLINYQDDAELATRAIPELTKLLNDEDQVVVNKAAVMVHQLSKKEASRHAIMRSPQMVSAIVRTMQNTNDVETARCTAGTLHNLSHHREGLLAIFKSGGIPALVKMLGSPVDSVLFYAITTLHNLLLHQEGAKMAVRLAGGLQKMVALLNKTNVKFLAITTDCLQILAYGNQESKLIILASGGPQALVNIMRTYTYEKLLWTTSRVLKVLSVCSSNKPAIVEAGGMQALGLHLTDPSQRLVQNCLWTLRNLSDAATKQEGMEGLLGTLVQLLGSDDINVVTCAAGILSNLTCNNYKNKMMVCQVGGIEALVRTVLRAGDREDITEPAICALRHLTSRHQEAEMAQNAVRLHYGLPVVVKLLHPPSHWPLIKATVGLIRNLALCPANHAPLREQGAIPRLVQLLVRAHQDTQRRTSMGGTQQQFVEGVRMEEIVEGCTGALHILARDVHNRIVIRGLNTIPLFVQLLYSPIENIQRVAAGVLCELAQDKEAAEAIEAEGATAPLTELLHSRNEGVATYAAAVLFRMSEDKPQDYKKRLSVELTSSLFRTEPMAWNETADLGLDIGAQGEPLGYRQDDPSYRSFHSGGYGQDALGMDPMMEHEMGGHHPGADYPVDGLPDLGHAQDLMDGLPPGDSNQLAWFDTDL
Description: (§2) The plate was incubated protected from light for 60 minutes at 20° C. prior to read. Reads were performed on a CLARIOstar plate reader (BMG Labtech) in duplicate, and data were fitted to a 1:1 binding model with hill slope using an in-house script. All provided concentrations are final concentrations.

[4] = biological target: T4, full-length beta-Catenin (Uniprot ID P35222) (Homo sapiens (Human), UniProt P35222 2-781); test: fluorescence polarization competition, displacement of 5FAM-TCF4 10-53 from full-length beta-catenin
T4 construct: also called bCat; B-Catenin
T4 sequence: T3 sequence
Description: as §2

[5] = biological target: T5, Bcat-Halo (UniProt P35222 1-781); test: NanoBRET in HEK293 cells, Bcat-Halo/TCF4-Luc (competitor TCF4-Luc); absolute IC50
T5 construct: Construct transfected into HEK293 cells for NanoBRET; not shown: HaloTag fusion partner
T5 sequence (looked up): T1 sequence (looked up)

[6] = biological target: T6, full-length beta-Catenin (Uniprot ID P35222) (Homo sapiens (Human), UniProt P35222 2-781); test: fluorescence polarization competition; full-length beta-catenin, competitor 5FAM-TCF4(10-53) probe
T6 construct: Also used here for the endogenous beta-catenin of the DLD1 TCF reporter cells; also called bCat; B-Catenin
T6 sequence: T3 sequence
Method in brief: as §1

[7] = biological target: T7, beta-catenin in DLD1 TCF/LEF luciferase reporter cells (UniProt P35222 1-781); test: cell-based or functional assay
T7 sequence (looked up): T1 sequence (looked up)

[8] = biological target: B-cat-Halo (beta-catenin HaloTag construct expressed in HEK293 cells) (UniProt P35222 1-781); test: cell-based or functional assay

Binder: Ac-[αAllylPro]DI[B5(16)]DEQAFQ[S8]F[Bta]Q-NH2 (staple 1-4, 4-11, Stapled peptide) [I-654]
IC50 [1]: 15 µM

B1: I-662 (peptide)
peptide: XDIXDEASFQXFXQ
modifications: not fully specified; Ac-PL3-Asp-Ile-B5-Asp-Glu-Ala-Ser-Phe-Gln-S8-Phe-BztA-Gln-NH2; N-terminal acetyl, C-terminal amide; PL3(1), B5(4), S8(11) stapled by olefin metathesis (1-4 and 4-11); BztA at 13
notes: Stapled peptide
IC50 [1]: 16.1 µM | IC50 [2]: 0.026 µM

Binder: Ac-[αAllylPro]DL[B5(4)]DEAAFN[S8]F[Bta]N-NH2 (staple 1-4, 4-11; also: olefin E/Z not assigned, earlier-eluting staple isomer, Stapled peptide composition) [I-752]
IC50 [5]: 9.9 µM | EC50 [6]: 0.016 µM

Binder: Ac-[αAllylPro]DL[B5(4)]DEAAFN[S8]F[Bta]N-NH2 (staple 1-4, 4-11; also: olefin E/Z not assigned, later-eluting staple isomer, Stapled peptide composition) [I-753]
IC50 [5]: 10 µM | EC50 [6]: 0.014 µM

Other lines, results leading:

IC50 [3]: 3.79 µM
B2: I-1296 (peptide)
peptide: Ac-[αAllylPro]DA[B5(10)]NTAAFL[PyrS2]F[Bta]Q-NH2
modifications: staple 1-4, 4-11; not fully specified; printed as Ac-PL3-Asp-Ala-B5-Asn-Thr-Ala-Ala-Phe-Leu-PyrS2-Phe-BztA-Gln-NH2
notes: later eluting HPLC peak (staple isomer composition); also called Ac-PL3-Asp-Ala-B5-Asn-Thr-Ala-Ala-Phe-Leu-PyrS2-Phe-BztA-Gln-NH2

IC50 [4]: 0.176 µM
Binder: Ac-PD[Cha][R5]DDAAFT[PyrS2(3)][Phe(2-Cl)][Bta]S-NH2 (staple 4-11, Stapled peptide, one staple) [I-1184]

DLD1 4% Abs IC50 [7]: 7.8 µM | NanoBRET Abs IC50 [8]: 9.6 µM
B3: I-1019: Ac-PL3-Asp-Npg-B5-Asp-Asp-Ala-Ala-Phe-Ser-PyrS2-2C1F-BztA-Ser-NH2 (peptide)
peptide: Ac-[αAllylPro]D[tBuAla][B5(16)]DDAAFS[PyrS2″][Phe(2-Cl)][Bta]S-NH2
modifications: staple 1-4, 4-11; not fully specified; printed as Ac-PL3-Asp-Npg-B5-Asp-Asp-Ala-Ala-Phe-Ser-PyrS2-2C1F-BztA-Ser-NH2

IC50 [4]: 0.409 µM
B4: I-1183 (peptide)
peptide: Ac-PD[tBuAla][R5]DDAAFN[PyrS2(3)][Phe(2-Cl)][Bta]Q-NH2
modifications: staple 4-11
notes: Stapled peptide, one staple. '2C1F' as printed (2ClF)
